Laboratory results from patent publication US20220040319A1 (Regeneron, published 2022).

Experiments:
[1] = biological target: T1, hMet.mmh (human MET extracellular domain with C-terminal myc-myc-hexahistidine tag) (human, UniProt P08581 309-914; P08581 27-307); assay: SPR 37C, antibody captured
T1 construct: soluble monomeric MET; also called monomeric human MET
Description: (§1) The anti-Met antibodies tested in this example were bivalent monospecific binders of MET.
(§2) Kinetic association (kₐ) and dissociation (kd) rate constants were determined by fitting the real-time sensorgrams to a 1:1 binding model using Scrubber 2.0c curve fitting software. Binding dissociation equilibrium constant (KD) and dissociative half-life (t1/2) were calculated from the kinetic rate constants as: […]

[2] = biological target: T2, hMET.mFc (dimeric human MET) (human, UniProt P08581 27-307); assay: SPR 37C, antibody captured
T2 construct: soluble dimeric MET protein
Description: as §1, §2

human MET on cells = human MET on cells (human, UniProt P08581 25-1390); assay: cell-based or functional assay; on % Inhibition, HEK293/SRE-Luc Blocking Activity (HGF, 1 h mAb pre-bind): test concentration or dose not given here
Sequence of human MET on cells (P08581 25-1390 limits assumed, form in doubt): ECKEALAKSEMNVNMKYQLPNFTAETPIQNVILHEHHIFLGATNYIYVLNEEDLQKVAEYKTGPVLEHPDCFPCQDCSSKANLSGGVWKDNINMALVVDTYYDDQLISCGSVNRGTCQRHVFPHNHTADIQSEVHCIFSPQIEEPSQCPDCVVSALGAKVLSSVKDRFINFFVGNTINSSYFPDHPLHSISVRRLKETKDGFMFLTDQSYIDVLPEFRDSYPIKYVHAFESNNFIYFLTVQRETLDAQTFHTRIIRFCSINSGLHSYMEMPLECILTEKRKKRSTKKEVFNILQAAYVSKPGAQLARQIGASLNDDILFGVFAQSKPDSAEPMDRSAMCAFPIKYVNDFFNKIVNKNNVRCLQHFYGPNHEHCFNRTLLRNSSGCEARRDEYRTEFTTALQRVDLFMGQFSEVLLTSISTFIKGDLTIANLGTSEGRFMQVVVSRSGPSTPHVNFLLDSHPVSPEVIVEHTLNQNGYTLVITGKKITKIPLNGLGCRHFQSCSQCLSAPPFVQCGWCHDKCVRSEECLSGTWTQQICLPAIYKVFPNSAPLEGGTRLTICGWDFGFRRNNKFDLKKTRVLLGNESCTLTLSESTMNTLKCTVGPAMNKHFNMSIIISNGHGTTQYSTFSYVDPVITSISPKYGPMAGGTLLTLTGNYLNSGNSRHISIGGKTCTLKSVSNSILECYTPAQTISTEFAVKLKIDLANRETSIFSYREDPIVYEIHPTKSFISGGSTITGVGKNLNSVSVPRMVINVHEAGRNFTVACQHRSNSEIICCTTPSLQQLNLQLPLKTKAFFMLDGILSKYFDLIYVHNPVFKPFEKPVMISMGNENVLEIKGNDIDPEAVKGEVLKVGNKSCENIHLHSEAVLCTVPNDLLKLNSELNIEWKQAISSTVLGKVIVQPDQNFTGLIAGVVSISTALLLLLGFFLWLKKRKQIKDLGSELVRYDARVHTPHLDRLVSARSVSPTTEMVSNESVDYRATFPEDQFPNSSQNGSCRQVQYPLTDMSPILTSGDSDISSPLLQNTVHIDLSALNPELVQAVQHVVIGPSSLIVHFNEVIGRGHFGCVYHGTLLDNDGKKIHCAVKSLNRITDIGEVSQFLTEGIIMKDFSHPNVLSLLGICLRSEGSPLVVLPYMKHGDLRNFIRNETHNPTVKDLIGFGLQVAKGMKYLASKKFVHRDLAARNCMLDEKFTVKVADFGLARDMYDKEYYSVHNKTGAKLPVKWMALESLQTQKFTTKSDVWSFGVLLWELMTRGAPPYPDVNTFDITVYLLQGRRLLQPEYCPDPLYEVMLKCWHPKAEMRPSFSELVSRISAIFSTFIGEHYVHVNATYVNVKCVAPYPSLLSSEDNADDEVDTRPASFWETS

T2 sequence (P08581 other isoform, or with tags, fused parts or gaps limits assumed, chain 1 of 2): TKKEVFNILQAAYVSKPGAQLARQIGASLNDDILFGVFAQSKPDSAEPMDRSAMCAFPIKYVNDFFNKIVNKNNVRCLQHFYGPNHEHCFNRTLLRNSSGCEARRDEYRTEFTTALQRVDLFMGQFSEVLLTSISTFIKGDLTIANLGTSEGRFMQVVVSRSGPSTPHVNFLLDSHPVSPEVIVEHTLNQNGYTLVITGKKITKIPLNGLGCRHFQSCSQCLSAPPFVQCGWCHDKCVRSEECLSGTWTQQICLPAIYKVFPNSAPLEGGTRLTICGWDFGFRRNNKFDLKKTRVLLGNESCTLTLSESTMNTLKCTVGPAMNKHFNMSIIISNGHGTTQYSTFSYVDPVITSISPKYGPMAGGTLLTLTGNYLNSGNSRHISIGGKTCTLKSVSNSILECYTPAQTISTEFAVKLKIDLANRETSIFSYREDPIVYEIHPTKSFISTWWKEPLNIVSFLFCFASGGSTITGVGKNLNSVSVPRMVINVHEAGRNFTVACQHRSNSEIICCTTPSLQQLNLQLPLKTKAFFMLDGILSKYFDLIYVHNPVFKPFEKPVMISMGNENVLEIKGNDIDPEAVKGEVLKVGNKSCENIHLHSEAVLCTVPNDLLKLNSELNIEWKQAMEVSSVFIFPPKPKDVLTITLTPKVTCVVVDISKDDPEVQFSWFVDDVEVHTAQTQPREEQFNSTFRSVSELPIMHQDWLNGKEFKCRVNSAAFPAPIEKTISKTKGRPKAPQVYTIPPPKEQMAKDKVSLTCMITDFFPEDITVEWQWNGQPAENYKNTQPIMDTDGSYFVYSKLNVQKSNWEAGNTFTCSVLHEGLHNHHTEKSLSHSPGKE
T2 sequence (P08581 27-307 limits assumed, chain 2 of 2): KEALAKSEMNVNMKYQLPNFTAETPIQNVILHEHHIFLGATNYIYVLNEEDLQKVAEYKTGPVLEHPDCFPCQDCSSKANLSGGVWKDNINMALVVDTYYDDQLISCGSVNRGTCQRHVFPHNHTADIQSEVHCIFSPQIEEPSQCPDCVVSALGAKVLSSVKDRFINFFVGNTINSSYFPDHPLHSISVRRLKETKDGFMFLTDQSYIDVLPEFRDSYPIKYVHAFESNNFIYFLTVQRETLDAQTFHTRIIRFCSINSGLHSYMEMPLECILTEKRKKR
T1 sequence (P08581 other isoform, or with tags, fused parts or gaps limits assumed, chain 1 of 2): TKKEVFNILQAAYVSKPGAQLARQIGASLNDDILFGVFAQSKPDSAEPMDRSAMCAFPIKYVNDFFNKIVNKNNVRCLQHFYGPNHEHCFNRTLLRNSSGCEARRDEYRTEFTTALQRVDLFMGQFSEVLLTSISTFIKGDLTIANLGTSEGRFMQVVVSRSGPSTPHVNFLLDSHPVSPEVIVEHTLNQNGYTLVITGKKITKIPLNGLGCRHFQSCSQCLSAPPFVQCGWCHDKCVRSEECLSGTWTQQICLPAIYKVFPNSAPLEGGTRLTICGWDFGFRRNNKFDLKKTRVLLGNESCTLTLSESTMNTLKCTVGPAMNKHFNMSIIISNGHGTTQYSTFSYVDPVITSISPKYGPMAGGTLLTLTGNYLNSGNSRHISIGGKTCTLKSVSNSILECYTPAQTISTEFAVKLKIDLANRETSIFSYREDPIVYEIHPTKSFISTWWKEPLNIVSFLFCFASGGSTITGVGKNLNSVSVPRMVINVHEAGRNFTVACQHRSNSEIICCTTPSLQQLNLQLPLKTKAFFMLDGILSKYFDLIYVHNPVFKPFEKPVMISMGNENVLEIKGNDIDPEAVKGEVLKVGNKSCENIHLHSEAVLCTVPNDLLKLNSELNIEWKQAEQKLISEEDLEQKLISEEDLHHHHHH
T1 sequence (P08581 27-307 limits assumed, chain 2 of 2): as the sequence (P08581 27-307 limits assumed, chain 2 of 2) above

| Binder | Kd [1] [nM] | T½ [1] [min] | koff [1] [s⁻¹] | kon [1] [M⁻¹ s⁻¹] | Kd [2] [nM] | T½ [2] [min] | koff [2] [s⁻¹] | kon [2] [M⁻¹ s⁻¹] | % Inhibition, HEK293/SRE-Luc Blocking Activity (HGF, 1 h mAb pre-bind) (human MET on cells) [%] | EC50, Ligand (HGF)-Independent HEK293/SRE-Luc Activation (human MET on cells) [nM] | Fold Response, Ligand (HGF)-Independent HEK293/SRE-Luc Activation (human MET on cells) [fold] | IC50, HEK293/SRE-Luc Blocking Activity (HGF, 1 h mAb pre-bind) (human MET on cells) [nM] |
| --- | --- | --- | --- | --- | --- | --- | --- | --- | --- | --- | --- | --- |
| H4H13311P2 (antibody, human IgG4, V domains shown, human IgG4 Fc (H4H), bivalent monospecific) VH: QVQLVESGGGVVQPGRSLRLSCAASGFTFSSYAMHWVRQAPGRGLEWVAVIWHDGDVEYYVDSVKDRFTISRDNSKSTLYLQMNSLRAEDTALYYCAREAWDLLRPFDYWGQGTLVTVSS VL: not shown | 116 | 2.2 | 0.00519 | 44800 | 1.55 | 24.7 | 0.000468 | 302000 | – | – | – | – |
| H4H13319P2 (antibody, human IgG4, V domains shown, human IgG4 Fc (H4H), bivalent monospecific) VH: QVQLVESGGGVVQPGRSLRLSCAASGFTFSSFAMHWVRQAPGKGLEWVAVIWYDGSNDYYAASVKGRFTISRDNSKNTLYLEMNRLRAEDTAVYHCARDNWNYWGGMDVWGQGTTVTVSS VL: not shown | 76.5 | 4.9 | 0.00238 | 31100 | 1.42 | 21.3 | 0.000542 | 382000 | – | – | – | – |
| H4H13318P2 (antibody, human IgG4, V domains shown, human IgG4 Fc (H4H), bivalent monospecific) VH: QVQLVESGGGVVQPGRSLRLSCVASGFSFSNFGMHWVRQAPGKGLEWVAIIWYDGSNKYYSDSVKGRFTISRDNSKNTLYLQMNSLRVDDTAVYYCARFDRWKFDAFDIWGQGTMVTVSS VL: not shown | 88.3 | 4 | 0.00292 | 33000 | 0.467 | 70.2 | 0.000165 | 352000 | – | – | – | – |
| H4H13291P2 (antibody, human IgG4, V domains shown, human IgG4 Fc (H4H), bivalent monospecific) VH: QVQLVESGGGVVQPGGSLRLSCAASGFTFSGYGMHWVRQAPGKGLEWMAVIWYDGSNDYYPDSVKGRFTISRDNSKNTLYLQMNSLRVEDTAVYYCARDAWDLLRSFDYWGQGTLVTVSS VL: not shown | 93.4 | 4.8 | 0.00238 | 25500 | 1.02 | 34 | 0.000339 | 333000 | – | – | – | – |
| H4H13331P2 (antibody, human IgG4, V domains shown, human IgG4 Fc (H4H), bivalent monospecific) VH: QVQLQESGPGLVKSSETLSLTCTVSGGSIRNFYWSWLRQPPGKGLEWIGHINYNGGTDYNPSLKSRVTISVDTSKNQFSLNLNSVTAADTAVYYCARQRFYGMDVWGPGTTVTVSS VL: not shown | 3.35 | 13.2 | 0.000873 | 261000 | 0.244 | 74.1 | 0.000156 | 639000 | – | – | – | – |
| H4H13313P2 (antibody, human IgG4, V domains shown, human IgG4 Fc (H4H), bivalent monospecific) VH: QVQLVESGGGVVQPGRSLRLSCSASGFSFSHFGMHWVRQVPGGGLEWVTSIWFDGSNRYYADSLKGRFTISRDNSKNTLYLEMNSLRAEDTAVYYCVREGILGTTNPYDVFDVWGQGTMVTVSS VL: not shown | 64.9 | 2 | 0.0057 | 87800 | 1.19 | 12.9 | 0.000893 | 750000 | – | – | – | – |
| H4H13316P2 (antibody, human IgG4, V domains shown, human IgG4 Fc (H4H), bivalent monospecific) VH: EVQLVESGGGLVQPGGSLRLSCAASGFTFRSYVMSWFRQAPGKGLEWVSGMSGSGGSTSYADSVKGRFTISRDNSKNTLYLLMNSLRTEDTAVYYCAKENGANWNYGYYGMDVWGQGTTVTVSS VL: not shown | 19.3 | 7.6 | 0.00151 | 78200 | 0.367 | 107 | 0.000108 | 293000 | – | – | – | – |
| H4H13309P2 (antibody, human IgG4, V domains shown, human IgG4 Fc (H4H), bivalent monospecific) VH: QVQLVQSGTEVKEPGASVKVSCKASGYSFTTYGISWLRQAPGQGLEWMGWISTYNGDTISAQMLQDRVTLTADTSTRTAYMELRSLRSDDTAVYYCARGHEYDSLVYSYWGQGTLVTVSS VL: not shown | 6.38 | 19.7 | 0.000587 | 92000 | 0.657 | 43.3 | 0.000267 | 406000 | – | – | – | – |
| H4H13325P2 (antibody, human IgG4, V domains shown, human IgG4 Fc (H4H), bivalent monospecific) VH: EVQLLESGGGWVQPGGSLRLSCAASGFAFSNYAMNWVRQTPGKGLEWVSVISSSGGNTYYADSVKGRFAISRDNSRDTLHLQMNRLRVEDTAVYYCAKEIRPYYDLSYYYGMDVWGQGTTVTVSS VL: not shown | 24.8 | 4.9 | 0.00236 | 95300 | 0.605 | 62.4 | 0.000185 | 306000 | – | – | – | – |
| H4H13295P2 (antibody, human IgG4, V domains shown, human IgG4 Fc (H4H), bivalent monospecific) VH: QVQLVESGGGVVQPGRSLRVSCVVSGFTFSSFGMHWVRQAPDKGLEWVAVIWYDGSNDYYSDSVKGRFTISRDNSKNTLFLQMNRLRAEDTAVYYCARANNWNRFDAFDLWGQGTMVTVSS VL: not shown | 32.4 | 21.4 | 0.00054 | 16700 | 1.16 | 43.8 | 0.000264 | 228000 | – | – | – | – |
| H4H13290P2 (antibody, human IgG4, V domains shown, human IgG4 Fc (H4H), bivalent monospecific) VH: QVQLQESGPGLVKPSETLSLTCTVSGDSISSYYWTWIRQPPGKGLEWIGYIFYRGGTTYNPSLKSRVTISVDTSKNQFSLKLRSVTAADTAVYYCARGDDLLVVTSVYWYIDLWGRGTLVTVSS VL: not shown | 3.17 | 14.4 | 0.000803 | 253000 | 0.513 | 36.6 | 0.000315 | 615000 | – | – | – | – |

The remaining lines, values ahead:

| Kd [1] [nM] | T½ [1] [min] | koff [1] [s⁻¹] | kon [1] [M⁻¹ s⁻¹] | Kd [2] [nM] | T½ [2] [min] | koff [2] [s⁻¹] | kon [2] [M⁻¹ s⁻¹] | % Inhibition, HEK293/SRE-Luc Blocking Activity (HGF, 1 h mAb pre-bind) (human MET on cells) [%] | EC50, Ligand (HGF)-Independent HEK293/SRE-Luc Activation (human MET on cells) [nM] | Fold Response, Ligand (HGF)-Independent HEK293/SRE-Luc Activation (human MET on cells) [fold] | IC50, HEK293/SRE-Luc Blocking Activity (HGF, 1 h mAb pre-bind) (human MET on cells) [nM] | Binder |
| --- | --- | --- | --- | --- | --- | --- | --- | --- | --- | --- | --- | --- |
| – | – | – | – | – | – | – | – | 81 | 1 | 4.3 | 0.52 | H4H16445D (bispecific antibody, human IgG4, V domains shown) VH 1: QVQLVESGGGVVQPGGSLRLSCAASGFTFSGYGMHWVRQAPGKGLEWMAVIWYDGSNDYYPDSVKGRFTISRDNSKNTLYLQMNSLRVEDTAVYYCARDAWDLLRSFDYWGQGTLVTVSS VH 2: EVQLVESGGGLVQPGGSLRLSCAASGFIVTTNYMTWLRQAPGKGLEWVSLIYSSGHTYYADSVKGRFTISRHNSKNTLYLQMDSLRAEDTAVYYCASAFAADVFDIWGQGTMVTVSS VL: not shown |
| – | – | – | – | – | – | – | – | 85 | 0.42 | 4.2 | 0.32 | H4H16449D (bispecific antibody, human IgG4, V domains shown) VH 1: QVQLVESGGGVVQPGRSLRLSCAASGFTFSSFAMHWVRQAPGKGLEWVAVIWYDGSNDYYAASVKGRFTISRDNSKNTLYLEMNRLRAEDTAVYHCARDNWNYWGGMDVWGQGTTVTVSS VH 2: EVQLVESGGGLVQPGGSLRLSCAASGFIVTTNYMTWLRQAPGKGLEWVSLIYSSGHTYYADSVKGRFTISRHNSKNTLYLQMDSLRAEDTAVYYCASAFAADVFDIWGQGTMVTVSS VL: not shown |
| – | – | – | – | – | – | – | – | 83 | 1.4 | 4 | 1 | H4H16446D (bispecific antibody, human IgG4, V domains shown) VH 1: QVQLVESGGGVVQPGRSLRLSCAVSGFTFSSYGMHWVRQAPGKGLEWVANIWYDGTNDYYPYSVKGRFTISRDNSQNTLYLQMNSLRAEDTAVYYCAREDFINYRSFDYWGQGTLVTVSS VH 2: EVQLVESGGGLVQPGGSLRLSCAASGFIVTTNYMTWLRQAPGKGLEWVSLIYSSGHTYYADSVKGRFTISRHNSKNTLYLQMDSLRAEDTAVYYCASAFAADVFDIWGQGTMVTVSS VL: not shown |
| – | – | – | – | – | – | – | – | 87 | 0.91 | 4.3 | 0.62 | H4H16448D (bispecific antibody, human IgG4, V domains shown) VH 1: QVQLVESGGGVVQPGRSLRLSCVASGFSFSNFGMHWVRQAPGKGLEWVAIIWYDGSNKYYSDSVKGRFTISRDNSKNTLYLQMNSLRVDDTAVYYCARFDRWKFDAFDIWGQGTMVTVSS VH 2: EVQLVESGGGLVQPGGSLRLSCAASGFIVTTNYMTWLRQAPGKGLEWVSLIYSSGHTYYADSVKGRFTISRHNSKNTLYLQMDSLRAEDTAVYYCASAFAADVFDIWGQGTMVTVSS VL: not shown |
| – | – | – | – | – | – | – | – | 76 | 1.4 | – | – | H4H16447D (bispecific antibody, human IgG4, V domains shown) VH 1: QVQLVESGGGVVQPGRSLRLSCAASGFTFSSYAMHWVRQAPGRGLEWVAVIWHDGDVEYYVDSVKDRFTISRDNSKSTLYLQMNSLRAEDTALYYCAREAWDLLRPFDYWGQGTLVTVSS VH 2: EVQLVESGGGLVQPGGSLRLSCAASGFIVTTNYMTWLRQAPGKGLEWVSLIYSSGHTYYADSVKGRFTISRHNSKNTLYLQMDSLRAEDTAVYYCASAFAADVFDIWGQGTMVTVSS VL: not shown |
